Here are results for 2 molecules from patent US20240207401A1 (IMPERIAL COLLEGE INNOVATIONS, published 2024).

Assay [1] has as its target T1, SARS-CoV-2 spike trimer (COVID19 S ectodomain, residues 1-1208) (SARS-CoV-2, UniProt P0DTC2 14-1208).
Assay [2] deals with T2, SARS-CoV spike trimer (S ectodomain protein) (SARS-CoV, UniProt P59594 14-1195).
For assay [3], the target named is T1, SARS-CoV-2 spike trimer (COVID19 S …). This is another data set of the same source.
In assay [4] the target is T2, SARS-CoV spike trimer (S ectodomain …). Description: SARS-CoV spike.
In assay [5] the target is T1, SARS-CoV-2 spike trimer (COVID19 S …). This is another data set of the same source.
The target of assay [6] is T2, SARS-CoV spike trimer (S ectodomain …). The source holds these as a separate data set.
Assay [7] has as its target T3, MERS-CoV spike trimer (S ectodomain protein) (MERS-CoV, UniProt K9N5Q8 18-1296).
For assay [8], the target named is T4, SARS-CoV spike protein, full length on virus (SARS-CoV, UniProt P59594 14-1255). Description: cell-based or functional assay.
In assay [9] the target is T5, MERS-CoV spike protein, full length on virus or transfected cells (MERS-CoV, UniProt K9N5Q8 18-1353). Description: cell-based or functional assay.
The target of assay [10] is T4, SARS-CoV spike protein, full length on …. Description: cell-based or functional assay. The source holds these as a separate data set.
The target of assay [11] is SARS-CoV-2 S protein, membrane form (SARS-CoV-2, UniProt P0DTC2 14-1273). Description: cell-based or functional assay.
Assay [12] has as its target T5, MERS-CoV spike protein, full length on …. Description: cell-based or functional assay. The source holds these as a separate data set.
For assay [13], the target named is T3, MERS-CoV spike trimer (S ectodomain …). The experiment in a line: MERS-CoV spike.
Assay [14] concerns the target T1, SARS-CoV-2 spike trimer (COVID19 S …). Description: ELISA on spike trimer, IgG titrated. In general terms: In an ELISA, binding on a coated surface is turned into a signal by an enzyme label.

Like-named read-outs stand apart in the source and are kept apart here.

B1: IC001 (antibody, V domains shown)
VH: QVQLVQSGAEVKKPGASVKVSCKASGYTFTSYAMHWVRQAPGQRLEWMGWINAGNGNTKYSQKFQGRVTITRDTSASTAYMELSSLRSEDTAVYYCARDRHMVVPAAVFDYWGQGTLVTVSS
VL: AIQLTQSPSTLSASVGDRVTITCRASQSISSWLAWYQQKPGKAPKLLIYKASSLESGVPSRFSGSGSGTEFTLTISSLQPDDFATYYCQQYGTFGQGTKWISN
notes: also called CoV-bnMAB; mAb IC001
Regarding B1, the half-maximal effective concentration (EC50) (as a rule, the concentration needed to bring the measured effect to its halfway point) stood at 520 nM in [1]; 586 nM in [2]; 586 nM in assay [3]; 520 nM in assay [4]; 857 nM in assay [13]. In assay [3], the “fold weaker binding affinity than ACE2” value was around 7 fold. Besides, the values for the Kd in assay [5], in assay [6] and in assay [7] were 700 nM, 700 nM and 1200 nM, respectively. The “neutralization of SARS-CoV pseudovirus (IC50)” value in assay [8] stood at 1.8 µg/mL. In addition, the “neutralization of MERS-CoV pseudovirus (IC50)” value in assay [9] turned out to be 2.9 µg/mL. The “IC50, neutralisation” value in [10] was found to be 2.8 µg/mL; in assay [11], 2.2 µg/mL; in [12] it was 3 µg/mL.

B2: IC008 (antibody, V domains shown)
VH: LVQLQESGPRLVTPSETLSLTCTVSGGSISSSRHYWGWIRQPPGMGLEWIGSIDYSGGTYCNPSLKSRVTISEDTSKNQFSLKVNSVTAADTAVYYCARQVGHSGRGHNWFDPWGQGTLVTVSS
VL: DIQMTQSPSSLSASVGDRVTITCRASQSIYNYLNWYQQKPGKAPKFLIYAASTLQTGVPSRFSGSGSGTDFTLTISSLQPEDFATYYCQQSYSSSVTFGQGTRLEIK
notes: also called CoV-bnMAB; mAb IC008
Take B2: the EC50 (read off the curve) (commonly the concentration giving half of the maximal effect) in [14] is around 2 nM. The “IC50, neutralisation” value was 3 µg/mL in [10], 4.5 µg/mL in assay [11] and 2.9 µg/mL in [12].
